# Data: US6995018B1, “Complex formed by N-linked glycoproteins (SIBLINGS)and Factor H” (The United States of America as represented by the …, priority 1999, dated 2006)
# “Also recorded” adds a separate entry of the source.
# B1: BSP: Bone sialoprotein, phosphorylated and sulfated integrin-binding glycoprotein, SIBLINGS family; recombinant form from adenovirus-infected human marrow stromal fibroblasts (protein)
# chain: FSMKNLHRRVKIEDSEENGVFKYRPRYYLYKHAYFYPHLKRFPVQGSSDSSEENGDDSSEEEEEEEETSNEGENNEESNEDEDSEAENTTLSATTLGYGEDATPGTGYTGLAAIQLPKKAGDITNKATKEKESDEEEEEEEEGNENEESEAEVDENEQGINGTSTNSTEAENGNGSSGGDNGEEGEEESVTGANAEGTTETGGQGKGTSKTTTSPNGGFEPTTPPQVYRTTSPPFGKTTTVEYEGEYEYTGVNEYDNGYEIYESENGEPRGDNYRAYEDEYSYFKGQGYDGYDGQNYYHHQ
# B2: DMP1: dentin matrix protein, SIBLINGS family member; recombinant from adenoviral construct (protein)
# chain: LPVTRYQNNESEDSEEWKGHLAQAPTPPLESSESSEGSKVSSEEQANEDPSDSTQSEEGLGSDDHQYIYRLAGGFSRSTGKGGDDKDDDEDDSGDDTFGDDDSGPGPKDRQEGGNSRLGSDEDSDDTIQASEESAPQGQDSAQDTTSESRELDNEDRVDSKPEGGDSTQESESEEHWVGGGSDGESSHGDGSELDDEGMQSDDPESIRSERGNSRMNSAGMKSKESGENSEQANTQDSGGSQLLEHPSRKIFRKSRISEEDDRSELDDNNTMEEVKSDSTENSNSRDTGLSQPRRDSKGDSQEDSKENLSQEESQNVDGPSSESSQEANLSSQENSSESQEEVVSESRGDNPDPTTSYVEDQEDSDSSEEDSSHTLSHSKSESREEQADSESSESLNFSEESPESPEDENSSSQEGLQSHSSSAESQSEESHSEEDDSDSQDSSRSKEDSNSTESKSSSEEDGQLKNIEIESRKLTVDAYHNKPIGDQDDNDCQDGY
# Experiments:
# [1] = target: T1, purified human complement Factor H (Homo sapiens, UniProt P08603); assay: Steady state fluorescence titration of Factor H with SIBLINGS proteins; assay type: binding; conditions: fluorescence quenching at 347 nm, excitation 295 nm
# T1 construct: purchased Quidel Corporation (San Diego, Calif.)
# T1 sequence (P08603 19-1231): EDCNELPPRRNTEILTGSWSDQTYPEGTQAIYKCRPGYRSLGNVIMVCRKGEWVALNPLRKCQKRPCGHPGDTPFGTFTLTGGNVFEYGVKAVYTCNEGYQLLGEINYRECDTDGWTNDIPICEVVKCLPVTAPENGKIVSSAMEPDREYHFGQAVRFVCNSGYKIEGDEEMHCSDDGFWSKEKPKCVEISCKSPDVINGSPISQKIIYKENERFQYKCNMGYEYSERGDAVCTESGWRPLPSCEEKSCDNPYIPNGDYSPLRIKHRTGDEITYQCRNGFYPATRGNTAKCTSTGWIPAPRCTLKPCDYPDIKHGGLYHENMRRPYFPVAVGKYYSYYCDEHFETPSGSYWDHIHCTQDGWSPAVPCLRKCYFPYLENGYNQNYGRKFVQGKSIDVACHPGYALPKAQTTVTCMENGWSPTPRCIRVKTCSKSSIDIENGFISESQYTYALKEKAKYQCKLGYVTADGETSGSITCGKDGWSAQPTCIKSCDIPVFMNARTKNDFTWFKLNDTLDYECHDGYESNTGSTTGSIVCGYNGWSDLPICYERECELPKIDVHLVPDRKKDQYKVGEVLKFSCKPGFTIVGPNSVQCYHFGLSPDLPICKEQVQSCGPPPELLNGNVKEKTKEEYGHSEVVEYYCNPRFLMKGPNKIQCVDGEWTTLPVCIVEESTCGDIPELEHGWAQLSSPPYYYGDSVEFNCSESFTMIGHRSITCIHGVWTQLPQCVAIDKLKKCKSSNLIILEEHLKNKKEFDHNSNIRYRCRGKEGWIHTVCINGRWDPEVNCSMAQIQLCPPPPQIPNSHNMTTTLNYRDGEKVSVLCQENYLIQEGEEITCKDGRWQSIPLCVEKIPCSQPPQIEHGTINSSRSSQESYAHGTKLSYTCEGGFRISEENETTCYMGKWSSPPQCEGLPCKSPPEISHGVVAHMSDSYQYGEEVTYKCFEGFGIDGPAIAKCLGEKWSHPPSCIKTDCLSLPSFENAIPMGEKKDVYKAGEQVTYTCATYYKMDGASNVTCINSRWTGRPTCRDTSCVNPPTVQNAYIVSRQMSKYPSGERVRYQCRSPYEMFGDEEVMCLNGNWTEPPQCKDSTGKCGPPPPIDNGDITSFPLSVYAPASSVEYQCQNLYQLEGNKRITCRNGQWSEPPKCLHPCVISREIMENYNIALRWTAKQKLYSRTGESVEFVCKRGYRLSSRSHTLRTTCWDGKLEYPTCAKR
# Description: FIGS. 3A and 3B are graphs which show the result of a titration of Factor H with BSP.
# The salient structural features of Factor H include 20 short consensus repeats (SCRs) that contain four cysteine residues forming two disulfide bonds per repeat. In addition, each SCR contains one conserved tryptophan residue per repeat and Factor H is known to interact with several sialic acid-containing proteins. Therefore, binding interactions between members of the SIBLINGS family of proteins and Factor H can be studied by steady state fluorescence.
# Steady state fluorescence studies were accomplished by titrating purified human complement Factor H with rBSP, rOPN, and rDMP1 followed by excitation at 295 nm and monitoring emission between 300 and 450 nm. The emission profile of Factor H alone yields a peak at 347 nm. The addition of rBSP, rOPN, or rDMP1 in nm increments causes a relative fluorescent intensity quenching. Conversion of the fluorescent intensity titration into a binding curve by determining the fraction of binding sites occupied as the fractional change in fluorescence quenching at 347 nm yields a saturable binding curve. […] Given that normal serum concentration of Factor H is ^˜0.5 mg/mL it is probable that virtually all BSP, OPN, and DMP1 in serum will be complexed with Factor H.
# [2] = tested on: Murine erythroleukemia (MEL) cells; assay: Alternate complement mediated cell lysis assay, MEL cells with normal human serum; assay type: cell-based; conditions: for protection of MEL cells from complement-mediated lysis (cell viability): 10 μg/mL protein 10 min, normal human serum 1:10, 2 h, trypan blue and MTT
# Method: MEL cells were rinsed three times with GVB-MgEGTA buffer, resuspended in GVB-MgEGTA at a density of 5×10^6 cells/mL, and incubated at 37° C. with different concentrations of normal human serum. After 2 hrs, cells were harvested for trypan blue exclusion assay. The thiazolium blue assay was carried out at identical serum dilutions and cell viability was determined by absorbance at 560 nm. Each data point represents the average of three measurements. The error bars represent the standard deviation of the mean (A). MEL cells in GVB-MgEGTA buffer were incubated with 10 μg/mL of either rBSP or rOPN for 10 minutes at 37° C. Normal human serum was then added at a dilution of 1:10 and the cells were returned to 37° C., incubated for 2 hours and cell viability was determined by trypan blue and thiazolyl blue (MTT) reduction assays (B). Data from 3–7 separate experiments, with treatment replicates in triplicate, was combined to yield mean values. Error bars represent the standard error of the mean. N=number of experiments combined.
# MEL cells prepared as in FIG. 8 were treated with normal rBSP (10 μg/mL), rBSP whose RGD sequence had been mutated to KAE ([…]), and either GRGDS (SEQ ID NO: 10) peptide (400 μM) followed by rBSP or an αVβ3 antibody (1:4000) followed by rBSP for 10 minutes prior to the addition of normal human serum. The cells were then incubated for […] after which cell viability determined using the MTT assay (A). A cohort of MEL cells were pretreated with rOPN (10 μg/mL) alone, GRGDS (SEQ ID NO: 10) peptide followed by rOPN, the αVβ3 antibody followed by rOPN, or an anti-CD44 antibody (Chemicon, Co.) followed by rOPN, or hyaluronan (HA) followed by rOPN (B). Cells were then treated with normal human serum and viability assayed as in FIG. 8. […] The data represents the mean and standard error of the mean for three separate experiments. Statistical significance was determined by analysis of variance. Percent cell viability was determined using A560 absorbance values of various conditions and a control where no serum had been added (100% viable). The cross-hatched region represents that range of values observed when normal human serum (1:10) alone was added (maximal cell death).
# The first model system employed was a murine erythroleukemia (MEL) cell line which when incubated with normal human serum can be readily assayed for alternate complement pathway (ACP)-mediated cell lysis (Varnet et al., Curr. Opin. Cell Biol., 8(5):724–730, 1996). Cell survival was measured by both trypan blue dye exclusion and by thiazolyl blue (MTT) reduction by living mitochondria. Titration with dilutions of normal human serum and time courses were carried out to define optimal incubation conditions. At 1:10 dilution, human serum totally lysed the MEL cells as measured by both assay systems (FIG. 8A).
# Murine erytliroleukemia (MEL) cells (a gift of Dr. Marilyn Farquhar, Univ. CA San Diego.) grown in DMEM containing 10% fetal bovine serum and 4 mM glutamine were rinsed three times with gelatin veronal buffer with Mg2^+ and EGTA (GVB-MgEGTA, Sigma, St. Louis, Mo.). Cells were resuspended in GVB-MgEGTA at a density of 5×10^6 cells/mL and incubated at 37° C. with different concentrations of normal human serum diluted in GVB-MgEGTA. […] Cell viability was determined spectrophotometrically by absorbance at 560 nm. […]
# [3] = tested on: MCF-7 breast cancer cells; assay: Alternate complement pathway cell lysis assay with guinea pig serum, MCF-7; assay type: cell-based, human; conditions: MCF-7, 10 μg/mL, guinea pig serum 1:5, trypan blue and MTT
# Method: (§1) Human cancer cell lines, MCF-7 (A) and U-266 (B) cells were rinsed three time with GVB-MgEGTA buffer and subsequently treated exactly as in the MEL cell complement-mediated cell lysis assay described above except complement active guinea pig serum (GPS) was substituted for human serum. Three different dilutions of GPS were assayed. For cultures pretreated with 10 μg/mL BSP or OPN, the dilution of GPS used was 1:5. Cell viability was determined by both trypan blue exclusion (solid bar) and MTT (open bar) assay. The bars represent the mean values of triplicate samples and the error bars are the standard deviation values.
# (§2) Murine erytliroleukemia (MEL) cells (a gift of Dr. Marilyn Farquhar, Univ. CA San Diego.) grown in DMEM containing 10% fetal bovine serum and 4 mM glutamine were rinsed three times with gelatin veronal buffer with Mg2^+ and EGTA (GVB-MgEGTA, Sigma, St. Louis, Mo.). Cells were resuspended in GVB-MgEGTA at a density of 5×10^6 cells/mL and incubated at 37° C. with different concentrations of normal human serum diluted in GVB-MgEGTA. […] Cell viability was determined spectrophotometrically by absorbance at 560 nm. […] Normal human serum collected for good complement activity was then added at a dilution of 1:10 and the cells returned to 37° C. for 2 hours and cell viability was determined by trypan blue-exclusion and MTT assays. […]
# U-266 myeloma cells = assay: Alternate complement pathway cell lysis assay with guinea pig serum, U-266; assay type: cell-based, human; conditions: U-266, 10 μg/mL, guinea pig serum 1:5, trypan blue and MTT
# Method: as §1, §2
Molecule,binding constant with Factor H [1],dose relation of protection of MEL cells from alternate complement pathway-mediated lysis [2],protection of MEL cells from complement-mediated lysis (cell viability) [2],protection of MEL cells from complement-mediated lysis (cell viability) ([2]; listed as recombinant BSP),survival and protection from complement-mediated cell lysis [3],survival and protection from complement-mediated cell lysis (U-266 myeloma cells)
B1,in the nM range,dose related responses,protect,completely protected,enhanced survival and protection,enhanced survival and protection
B2,in the nM range,dose related responses,conferred protection; also recorded: protect the cells,–,–,–
